± gives the uncertainty stated by the source.
Experiment: self-splicing fitness, log relative to wild type (ln ratio); higher = more splicing; Tetrahymena group I intron in knt gene, E. coli kanamycin selection, DiMSum; sequences stand for … in CUCUCU…GGAGGGAAAAGUUAUCAGGCAUGCACCUGGUAGCUAGUCUUUAAACCAAUAGAUUGCAUCGGUUUAAAAGGCAAGACCGUCAAAUUGCGGGAAAGGGGUCAACAGCCGUUCAGUACCAAGUCUCAGGGGAAACUUUGAGAUGGCCUUGCAAAGGGUAUGGUAAUAAGCUGACGGACAUGGUCCUAACCACGCAGCCAAGUCCUAAGUCAACAGAUCUUCUGUUGAUAUGGAUGCAGUUCACAGACUAAAUGUCGGUCGGGGAAGAUGUAUUCUUCUCAUAAGAUAUAGUCGGACCUCUCCUUAAUGGGAGCUAGCGGAUGAAGUGAUGCAACACUGGAGCCGCUGGGAACUAAUUUGUAUGCGAAAGUAUAUUGAUUAGUUUUGGAGUACUCGUGGUCG
In short: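 Fitness was computed with DiMSum as the error-weighted combination of replicate fold changes, kanamycin versus none, each normalised to wild type. The library randomised all eight intron nucleotides of the P1ex region, with the intron placed in the knt kanamycin-resistance gene on pET-22b(+) in E. coli BL21(DE3). Six replicate transformations were grown overnight at 37°C or 30°C on LB agar with or without 25 μg/mL kanamycin, plus 100 μg/mL carbenicillin, 50 μM IPTG and 0.2% rhamnose. Pooled colonies were amplicon-sequenced on an Illumina HiSeq 2500.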

Row | Sequence | self-splicing fitness (ln) (30 °C) | self-splicing fitness (ln) (37 °C)
1 | UAUGAGCAAUAUUACGACGU | -3.11 ± 0.21 | -2.62 ± 0.3
2 | UAGUAGCAAUAUUACGGGAC | -4.2 ± 0.42 | -2.27 ± 0.43
3 | CAUAAGCAAUAUUACGAACG | -0.246 ± 0.074 | -0.0693 ± 0.087
4 | CCGAAGCAAUAUUACGCAAA | – | -2.17 ± 0.38
5 | CGAGAGCAAUAUUACGUCAU | -3.96 ± 0.4 | -1.78 ± 0.33
6 | AGCAAGCAAUAUUACGUAAG | -2.47 ± 0.097 | -0.897 ± 0.12
7 | CUGGAGCAAUAUUACGAUUG | -1.87 ± 0.12 | 0.00165 ± 0.13
8 | CUCUAGCAAUAUUACGGUCG | -1.51 ± 0.14 | -0.933 ± 0.14
9 | CUUCAGCAAUAUUACGAAAC | -0.955 ± 0.5 | –
10 | CUGGAGCAAUAUUACGUUCU | -2.43 ± 0.26 | -1.68 ± 0.49
11 | CUACAGCAAUAUUACGCAGG | -2.62 ± 0.13 | -3.06 ± 0.24
12 | CUAAAGCAAUAUUACGUAAU | -4.33 ± 0.29 | -2.54 ± 0.23
13 | UUCAAGCAAUAUUACGCAAG | -2.1 ± 0.2 | -0.676 ± 0.17
14 | GUGGAGCAAUAUUACGGGGC | -3.48 ± 0.48 | -1.93 ± 0.31
15 | CUGUAGCAAUAUUACGAGCA | – | -2.01 ± 0.31
16 | AUUGAGCAAUAUUACGUUAG | -3 ± 0.14 | -2.73 ± 0.19
17 | AGGAAGCAAUAUUACGCACC | -1.52 ± 0.16 | 0.0459 ± 0.16
18 | CCGGAGCAAUAUUACGCCAA | – | -2.53 ± 0.26
19 | UCCAAGCAAUAUUACGAAGA | -0.503 ± 0.086 | -0.326 ± 0.087
20 | UCUUAGCAAUAUUACGUCCA | -1.92 ± 0.13 | -1.93 ± 0.18
21 | AAUUAGCAAUAUUACGUCGG | -2.72 ± 0.19 | -1.66 ± 0.21
22 | GCUGAGCAAUAUUACGUACG | -2.59 ± 0.27 | -1.16 ± 0.29
23 | UCACAGCAAUAUUACGUUGC | -4.42 ± 0.23 | -2.95 ± 0.23
24 | CCUUAGCAAUAUUACGGGGU | -4.43 ± 0.28 | -2.08 ± 0.19
25 | AUGAAGCAAUAUUACGGCAC | -0.455 ± 0.086 | 0.222 ± 0.14

Row | Sequence | self-splicing fitness (ln) (30 °C) | self-splicing fitness (ln) (37 °C)
26 | CAACAGCAAUAUUACGAGUU | -2.6 ± 0.096 | -2.09 ± 0.13
27 | GUGAAGCAAUAUUACGCAUG | -1.5 ± 0.15 | -1.23 ± 0.18
28 | GCAGAGCAAUAUUACGAACU | -0.968 ± 0.14 | -1.1 ± 0.19
29 | UCAGAGCAAUAUUACGAUUG | -4 ± 0.37 | -2.41 ± 0.24
30 | CAAUAGCAAUAUUACGGAUC | -3.15 ± 0.37 | –
31 | GCGAAGCAAUAUUACGCCUG | -2.26 ± 0.19 | -2.16 ± 0.24
32 | GAUAAGCAAUAUUACGUUGG | -3.89 ± 0.21 | -2.87 ± 0.25
33 | CCUUAGCAAUAUUACGAUAG | -2.77 ± 0.12 | -2.37 ± 0.18
34 | AACGAGCAAUAUUACGUUCG | -3 ± 0.48 | -1.19 ± 0.2
35 | UUUAAGCAAUAUUACGGUGC | -3.88 ± 0.46 | -2.01 ± 0.47
36 | CAAUAGCAAUAUUACGUGUC | -3.97 ± 0.18 | -3.28 ± 0.21
37 | AGGUAGCAAUAUUACGAGUU | -2.033 ± 0.015 | -0.955 ± 0.033
38 | CGGUAGCAAUAUUACGAAUA | -2.04 ± 0.35 | -1.67 ± 0.3
39 | UCUUAGCAAUAUUACGCAGU | -2.76 ± 0.22 | -1.05 ± 0.13
40 | CUCGAGCAAUAUUACGCUGC | -3.61 ± 0.42 | –
41 | UGCCAGCAAUAUUACGUUUA | -2.56 ± 0.086 | -1.51 ± 0.072
42 | UGACAGCAAUAUUACGCCUC | -3.41 ± 0.26 | -3.24 ± 0.47
43 | AAAUAGCAAUAUUACGUACC | -0.0895 ± 0.18 | -1.39 ± 0.24
44 | CUGGAGCAAUAUUACGGAUA | -3.57 ± 0.48 | -1.35 ± 0.25
45 | AGGGAGCAAUAUUACGCGAG | -3.35 ± 0.19 | -2.47 ± 0.19
46 | GGGGAGCAAUAUUACGUCAU | – | -2.07 ± 0.39
47 | GAAUAGCAAUAUUACGGAUU | -0.925 ± 0.053 | -0.4 ± 0.07
48 | AUUUAGCAAUAUUACGGAAG | -1.33 ± 0.29 | -1.49 ± 0.39
49 | CCUGAGCAAUAUUACGAAGC | -2.38 ± 0.14 | -2.58 ± 0.3
50 | CUCCAGCAAUAUUACGGAUC | -1.86 ± 0.099 | -1.47 ± 0.14
